To fix the notation:
B1: library; a variant is named by its letters at N, in order (parent)
chain: GAGACCGCAACTGAAAAGTTGTGGNNNNNATAGTGAGTCGCTGCCTGCAAAGACACAACT

± gives the standard deviation of the averaged measurements.

The variants in the series derive from B1. The series is described as follows: ligation selection enrichment (abundance after / before one-round selection) (fold); higher = more template-directed ligation activity. Particulars: with T7Psub CACGGAUGCUAAUACGACUCACUAUA; MgCl2 25 mM; 42 °C; 4 h; pH 8.5. A digest of the protocol: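 Two independent reactions combined a T7-transcribed RNA ligase library with five randomized core positions (0.75 μM) and RNA substrate (6 μM) in 50 mM EPPS pH 8.5, 25 mM MgCl2, run for 4 h at 42 °C. The ligated products were sequenced on a MiSeq, and only reads with quality ≥30 at all randomized positions were counted. Enrichment is the abundance after ligation divided by the abundance before ligation.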
Regarding GTCCA, the ligation selection enrichment came out at 0.148 ± 0.0086. In the case of GTCCG, the ligation selection enrichment was determined as 0.529 ± 0.022. Take GTCCT: the ligation selection enrichment came out at 0.266 ± 0.14. The figure for CTTCC is 0.27 ± 0.03; for CTTCA it is 0.45 ± 0.093. In the case of CTTCT, the ligation selection enrichment is 0.681 ± 0.22. In the case of CTTCG, the ligation selection enrichment worked out at 1.47 ± 0.55. The figure for TGTTG is 1.1 ± 0.08. With TGTTC, the ligation selection enrichment was 0.147 ± 0.071. Regarding TGTTA, the ligation selection enrichment amounted to 0.2185 ± 0.00099. In the case of TGTTT, the ligation selection enrichment worked out at 0.468 ± 0.2. The figure for TTGAG is 0.82 ± 0.12; for TTGAA it is 1.56 ± 0.22; for TTGAC it is 3.32 ± 0.24. The figure for TTGAT is 29.9 ± 7.4. Turning to GTGTT, the ligation selection enrichment was determined as 0.277 ± 0.011. As to GTGTC, the ligation selection enrichment amounted to 0.144 ± 0.015. The figure for GTGTA is 0.265 ± 0.083. Consider GTGTG, for which the ligation selection enrichment is 0.75 ± 0.1.

Turning to TTCCT, the ligation selection enrichment is 0.443 ± 0.21. For TTCCC, the ligation selection enrichment came to 0.175 ± 0.022.

For the variant TTCCA, the ligation selection enrichment turned out to be 0.142 ± 0.0024. The figure for TTCCG is 0.813 ± 0.068; for ATAGT it is 0.17 ± 0.01. Regarding ATAGC, the ligation selection enrichment is 0.131 ± 0.033. With ATAGG, the ligation selection enrichment worked out at 0.3 ± 0.012. The figure for ATAGA is 0.543 ± 0.062; for GTCAT it is 0.373 ± 0.0027; for GTCAC it is 0.221 ± 0.0092. For the variant GTCAA, the ligation selection enrichment amounted to 0.766 ± 0.16. Regarding GTCAG, the ligation selection enrichment stood at 0.628 ± 0.038.

As for TGTCT, the ligation selection enrichment is 0.335 ± 0.099. On to TGTCG, for which the ligation selection enrichment was 0.653 ± 0.0083.

Regarding TTGTT, the ligation selection enrichment stood at 0.311 ± 0.15. Consider TTGTG, for which the ligation selection enrichment amounted to 0.223 ± 0.015. As to TTGTA, the ligation selection enrichment turned out to be 0.685 ± 0.11. For TTGTC, the ligation selection enrichment is 0.271 ± 0.021.

As for ATACC, the ligation selection enrichment worked out at 0.169 ± 0.016. For ATACG, the ligation selection enrichment turned out to be 1.5 ± 0.28. With ATACT, the ligation selection enrichment worked out at 0.541 ± 0.11.

On to ATACA, for which the ligation selection enrichment was found to be 0.257 ± 0.032. For the variant CTATG, the ligation selection enrichment is 0.36 ± 0.029. In the case of CTATT, the ligation selection enrichment turned out to be 0.546 ± 0.083. With CTATC, the ligation selection enrichment is 0.144 ± 0.0049. Turning to CTATA, the ligation selection enrichment amounted to 0.148 ± 0.068.

In the case of CTGCT, the ligation selection enrichment turned out to be 0.833 ± 0.12. As for CTGCA, the ligation selection enrichment is 0.147 ± 0.0049.

As for CTGCG, the ligation selection enrichment was found to be 0.5 ± 0.22.

As to CTGCC, the ligation selection enrichment was 0.138 ± 0.05. Regarding AGTGG, the ligation selection enrichment is 0.414 ± 0.077.

AGTGA: the ligation selection enrichment came to 0.842 ± 0.093. Take AGTGC: the ligation selection enrichment is 0.186 ± 0.0091.

With AGTGT, the ligation selection enrichment is 0.133 ± 0.035. Take GTATA: the ligation selection enrichment is 0.2557 ± 0.00086.

Take GTATG: the ligation selection enrichment turned out to be 1.4 ± 0.24. The figure for GTATT is 0.236 ± 0.12; for GTATC it is 0.167 ± 0.036.

Take TGTGC: the ligation selection enrichment worked out at 0.151 ± 0.015. For the variant TGTGT, the ligation selection enrichment was 0.102 ± 0.061. The figure for TGTGA is 0.629 ± 0.018; for TGTGG it is 0.196 ± 0.025; for GTTTA it is 0.446 ± 0.026.

For the variant GTTTT, the ligation selection enrichment came to 0.277 ± 0.048. For the variant GTTTG, the ligation selection enrichment was determined as 2.05 ± 0.47.

For GTTTC, the ligation selection enrichment stood at 0.169 ± 0.068. Regarding GTACC, the ligation selection enrichment turned out to be 0.165 ± 0.011. GTACG: the ligation selection enrichment was found to be 1.47 ± 0.055. Turning to GTACA, the ligation selection enrichment came to 0.288 ± 0.094. Consider GTACT, for which the ligation selection enrichment came to 0.785 ± 0.17. Turning to CTCGG, the ligation selection enrichment is 0.161 ± 0.036. As for CTCGC, the ligation selection enrichment turned out to be 0.141 ± 0.0066. The figure for CTCGT is 0.216 ± 0.13; for CTCGA it is 0.501 ± 0.012; for CTGGC it is 0.135 ± 0.021. As for CTGGG, the ligation selection enrichment was found to be 0.152 ± 0.051. The figure for CTGGT is 0.18 ± 0.078. Consider CTGGA, for which the ligation selection enrichment is 0.282 ± 0.086. Consider ATCGA, for which the ligation selection enrichment is 3.45 ± 0.064.

Turning to ATCGG, the ligation selection enrichment turned out to be 0.801 ± 0.021. In the case of ATCGC, the ligation selection enrichment amounted to 0.48 ± 0.024. ATCGT: the ligation selection enrichment came out at 0.723 ± 0.28. The figure for TTTAC is 0.218 ± 0.013; for TTTAG it is 0.504 ± 0.034.

As for TTTAA, the ligation selection enrichment turned out to be 0.18 ± 0.0051. TTTAT: the ligation selection enrichment was determined as 1.19 ± 0.53. The figure for GTTCT is 0.587 ± 0.17. Regarding GTTCA, the ligation selection enrichment is 0.545 ± 0.029.

On to GTTCC, for which the ligation selection enrichment amounted to 0.33 ± 0.069. With GTTCG, the ligation selection enrichment worked out at 2.43 ± 0.41. For the variant ATCAT, the ligation selection enrichment was 0.391 ± 0.082.

For the variant ATCAC, the ligation selection enrichment turned out to be 0.175 ± 0.028. As to ATCAG, the ligation selection enrichment is 0.722 ± 0.0083. The figure for ATCAA is 0.518 ± 0.024. The figure for CTGTG is 0.195 ± 0.072; for CTGTA it is 0.136 ± 0.0097; for CTGTC it is 0.18 ± 0.017. As to CTGTT, the ligation selection enrichment is 0.3 ± 0.027. Consider ATCTA, for which the ligation selection enrichment is 0.203 ± 0.01. Turning to ATCTT, the ligation selection enrichment was 0.102 ± 0.083. The figure for ATCTC is 0.078 ± 0.025; for ATCTG it is 0.796 ± 0.041. The figure for ATATT is 0.203 ± 0.037. Take ATATC: the ligation selection enrichment came out at 0.177 ± 0.029. Turning to ATATG, the ligation selection enrichment stood at 1.01 ± 0.061. The figure for ATATA is 0.239 ± 0.089; for AGTTA it is 0.434 ± 0.065. The figure for AGTTG is 3.78 ± 0.71; for AGTTT it is 0.427 ± 0.11; for AGTTC it is 0.176 ± 0.014.

With CTTTA, the ligation selection enrichment is 0.398 ± 0.12. Consider CTTTG, for which the ligation selection enrichment is 1.41 ± 0.7. The figure for CTTTC is 0.2049 ± 0.00081. Regarding CTTTT, the ligation selection enrichment came out at 0.63109 ± 0.00025. For the variant GTTGT, the ligation selection enrichment was determined as 0.353 ± 0.054. For the variant GTTGC, the ligation selection enrichment was 0.769 ± 0.034.

Consider GTTGA, for which the ligation selection enrichment was 5.22 ± 0.32. As to GTTGG, the ligation selection enrichment was determined as 0.739 ± 0.059. For ATGCT, the ligation selection enrichment was 0.505 ± 0.074. Turning to ATGCA, the ligation selection enrichment is 0.419 ± 0.021.

Consider ATGCC, for which the ligation selection enrichment is 0.176 ± 0.0063.

Regarding ATGCG, the ligation selection enrichment was 1.74 ± 0.19.

Take CTACT: the ligation selection enrichment was 0.785 ± 0.19. In the case of CTACG, the ligation selection enrichment turned out to be 0.429 ± 0.14. As for CTACA, the ligation selection enrichment was determined as 0.114 ± 0.0039. For CTACC, the ligation selection enrichment came out at 0.116 ± 0.021. The figure for ATGGG is 0.265 ± 0.05; for ATGGC it is 0.128 ± 0.0069. For ATGGA, the ligation selection enrichment came out at 0.662 ± 0.029. Consider ATGGT, for which the ligation selection enrichment turned out to be 0.181 ± 0.092.

For TTATG, the ligation selection enrichment was 0.377 ± 0.02.

Consider TTATT, for which the ligation selection enrichment was found to be 0.206 ± 0.071. For TTATA, the ligation selection enrichment was determined as 0.465 ± 0.12. With TTATC, the ligation selection enrichment came to 0.152 ± 0.02.

TTACT: the ligation selection enrichment worked out at 0.603 ± 0.42. The figure for TTACA is 0.193 ± 0.00088.

TTACG: the ligation selection enrichment is 0.5128 ± 0.0029. As to TTACC, the ligation selection enrichment turned out to be 0.142 ± 0.02.

For CTTGC, the ligation selection enrichment amounted to 0.446 ± 0.26. CTTGG: the ligation selection enrichment was 0.278 ± 0.035. As to CTTGA, the ligation selection enrichment is 2.2 ± 0.37. With CTTGT, the ligation selection enrichment came out at 0.413 ± 0.078. Consider CTAAC, for which the ligation selection enrichment came out at 0.146 ± 0.054. In the case of CTAAA, the ligation selection enrichment came out at 0.114 ± 0.017.

CTAAT: the ligation selection enrichment is 1.29 ± 0.25.

Regarding CTAAG, the ligation selection enrichment worked out at 0.314 ± 0.043. On to TTAGG, for which the ligation selection enrichment came to 0.306 ± 0.061. In the case of TTAGC, the ligation selection enrichment came to 0.139 ± 0.035. For the variant TTAGA, the ligation selection enrichment was 0.304 ± 0.054.

As to TTAGT, the ligation selection enrichment was 0.265 ± 0.074.
